From patent US20240228604A1 (ALCHEMAB THERAPEUTICS, published 2024)

Key:
Test in all cases: Retrogenix cell microarray, fixed HEK293 cells
[1] = biological target: T1, full-length human UNC5B on fixed HEK293 cells (Retrogenix panel) (human, UniProt Q8IZJ1 27-945)
T1 construct: whole, on cells

[2] = biological target: T2, full-length human UNC5D on fixed HEK293 cells (Retrogenix panel) (human, UniProt Q6UXZ4 33-953)
T2 construct: whole, on cells
T2 sequence (looked up): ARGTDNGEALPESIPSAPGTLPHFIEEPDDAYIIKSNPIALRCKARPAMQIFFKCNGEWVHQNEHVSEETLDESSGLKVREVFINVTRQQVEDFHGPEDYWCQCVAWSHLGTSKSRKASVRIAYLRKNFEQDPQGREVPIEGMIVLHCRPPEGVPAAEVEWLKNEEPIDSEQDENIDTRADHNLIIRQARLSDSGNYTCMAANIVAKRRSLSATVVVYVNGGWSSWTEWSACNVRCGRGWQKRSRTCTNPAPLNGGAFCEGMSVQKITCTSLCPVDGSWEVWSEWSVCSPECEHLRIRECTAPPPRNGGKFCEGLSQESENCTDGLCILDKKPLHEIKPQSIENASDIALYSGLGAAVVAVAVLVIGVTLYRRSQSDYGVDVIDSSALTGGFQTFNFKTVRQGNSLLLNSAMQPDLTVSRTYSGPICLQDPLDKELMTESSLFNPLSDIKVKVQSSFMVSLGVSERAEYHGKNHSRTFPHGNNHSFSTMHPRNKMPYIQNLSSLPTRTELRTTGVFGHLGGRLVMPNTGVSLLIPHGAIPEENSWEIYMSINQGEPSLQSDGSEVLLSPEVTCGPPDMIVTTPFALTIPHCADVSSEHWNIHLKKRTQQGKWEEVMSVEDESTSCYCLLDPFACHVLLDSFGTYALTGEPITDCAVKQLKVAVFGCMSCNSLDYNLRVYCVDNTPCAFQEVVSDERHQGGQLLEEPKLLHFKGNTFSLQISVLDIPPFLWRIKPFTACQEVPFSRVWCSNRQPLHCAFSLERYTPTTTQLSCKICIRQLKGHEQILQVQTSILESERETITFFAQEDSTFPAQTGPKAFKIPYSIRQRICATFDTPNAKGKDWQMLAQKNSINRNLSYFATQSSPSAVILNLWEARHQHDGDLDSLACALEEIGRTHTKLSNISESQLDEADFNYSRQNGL

[3] = biological target: T3, full-length human NEO1 on fixed HEK293 cells (Retrogenix panel) (human, UniProt Q92859 34-1461)
T3 construct: whole, on cells; also called neogenin
T3 sequence (looked up): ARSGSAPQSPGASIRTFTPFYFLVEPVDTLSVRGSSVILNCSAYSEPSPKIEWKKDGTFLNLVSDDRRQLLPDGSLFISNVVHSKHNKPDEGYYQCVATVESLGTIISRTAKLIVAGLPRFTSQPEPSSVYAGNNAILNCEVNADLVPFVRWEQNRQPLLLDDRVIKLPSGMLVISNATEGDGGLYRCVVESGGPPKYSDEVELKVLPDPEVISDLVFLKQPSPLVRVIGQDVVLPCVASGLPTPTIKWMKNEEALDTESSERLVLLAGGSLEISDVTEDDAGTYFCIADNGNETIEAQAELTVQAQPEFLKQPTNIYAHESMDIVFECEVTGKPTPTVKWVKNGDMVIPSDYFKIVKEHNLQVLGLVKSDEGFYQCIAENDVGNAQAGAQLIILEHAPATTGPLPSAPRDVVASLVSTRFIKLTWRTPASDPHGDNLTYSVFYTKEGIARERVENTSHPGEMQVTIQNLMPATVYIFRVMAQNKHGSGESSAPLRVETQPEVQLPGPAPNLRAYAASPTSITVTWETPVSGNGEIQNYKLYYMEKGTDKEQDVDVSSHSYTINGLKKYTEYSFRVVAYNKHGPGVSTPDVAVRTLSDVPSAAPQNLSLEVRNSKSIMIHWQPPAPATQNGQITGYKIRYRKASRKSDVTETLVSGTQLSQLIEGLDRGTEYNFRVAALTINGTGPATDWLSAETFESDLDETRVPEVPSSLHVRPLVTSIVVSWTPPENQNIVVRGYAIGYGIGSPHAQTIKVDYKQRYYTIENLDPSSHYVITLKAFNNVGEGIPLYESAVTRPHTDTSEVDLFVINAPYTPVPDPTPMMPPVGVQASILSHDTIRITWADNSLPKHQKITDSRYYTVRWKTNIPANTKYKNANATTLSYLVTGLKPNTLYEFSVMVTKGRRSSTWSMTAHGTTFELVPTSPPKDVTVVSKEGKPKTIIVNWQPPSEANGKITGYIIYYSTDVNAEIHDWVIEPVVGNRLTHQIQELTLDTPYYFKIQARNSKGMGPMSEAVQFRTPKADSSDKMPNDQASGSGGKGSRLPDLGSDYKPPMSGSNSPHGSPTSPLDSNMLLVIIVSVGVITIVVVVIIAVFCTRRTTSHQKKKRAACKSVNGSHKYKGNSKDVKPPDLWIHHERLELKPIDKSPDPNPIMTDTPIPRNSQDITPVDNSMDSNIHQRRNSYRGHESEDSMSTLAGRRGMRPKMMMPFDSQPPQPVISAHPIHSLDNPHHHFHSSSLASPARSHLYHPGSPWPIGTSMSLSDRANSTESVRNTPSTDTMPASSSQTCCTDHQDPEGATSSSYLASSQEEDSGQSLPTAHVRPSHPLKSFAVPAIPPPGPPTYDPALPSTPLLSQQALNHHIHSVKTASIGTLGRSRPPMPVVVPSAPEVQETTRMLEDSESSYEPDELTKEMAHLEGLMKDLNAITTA

[4] = biological target: T4, full-length human DCC on fixed HEK293 cells (Retrogenix panel) (human, UniProt P43146 26-1447)
T4 construct: whole, on cells
T4 sequence (P43146 26-1447): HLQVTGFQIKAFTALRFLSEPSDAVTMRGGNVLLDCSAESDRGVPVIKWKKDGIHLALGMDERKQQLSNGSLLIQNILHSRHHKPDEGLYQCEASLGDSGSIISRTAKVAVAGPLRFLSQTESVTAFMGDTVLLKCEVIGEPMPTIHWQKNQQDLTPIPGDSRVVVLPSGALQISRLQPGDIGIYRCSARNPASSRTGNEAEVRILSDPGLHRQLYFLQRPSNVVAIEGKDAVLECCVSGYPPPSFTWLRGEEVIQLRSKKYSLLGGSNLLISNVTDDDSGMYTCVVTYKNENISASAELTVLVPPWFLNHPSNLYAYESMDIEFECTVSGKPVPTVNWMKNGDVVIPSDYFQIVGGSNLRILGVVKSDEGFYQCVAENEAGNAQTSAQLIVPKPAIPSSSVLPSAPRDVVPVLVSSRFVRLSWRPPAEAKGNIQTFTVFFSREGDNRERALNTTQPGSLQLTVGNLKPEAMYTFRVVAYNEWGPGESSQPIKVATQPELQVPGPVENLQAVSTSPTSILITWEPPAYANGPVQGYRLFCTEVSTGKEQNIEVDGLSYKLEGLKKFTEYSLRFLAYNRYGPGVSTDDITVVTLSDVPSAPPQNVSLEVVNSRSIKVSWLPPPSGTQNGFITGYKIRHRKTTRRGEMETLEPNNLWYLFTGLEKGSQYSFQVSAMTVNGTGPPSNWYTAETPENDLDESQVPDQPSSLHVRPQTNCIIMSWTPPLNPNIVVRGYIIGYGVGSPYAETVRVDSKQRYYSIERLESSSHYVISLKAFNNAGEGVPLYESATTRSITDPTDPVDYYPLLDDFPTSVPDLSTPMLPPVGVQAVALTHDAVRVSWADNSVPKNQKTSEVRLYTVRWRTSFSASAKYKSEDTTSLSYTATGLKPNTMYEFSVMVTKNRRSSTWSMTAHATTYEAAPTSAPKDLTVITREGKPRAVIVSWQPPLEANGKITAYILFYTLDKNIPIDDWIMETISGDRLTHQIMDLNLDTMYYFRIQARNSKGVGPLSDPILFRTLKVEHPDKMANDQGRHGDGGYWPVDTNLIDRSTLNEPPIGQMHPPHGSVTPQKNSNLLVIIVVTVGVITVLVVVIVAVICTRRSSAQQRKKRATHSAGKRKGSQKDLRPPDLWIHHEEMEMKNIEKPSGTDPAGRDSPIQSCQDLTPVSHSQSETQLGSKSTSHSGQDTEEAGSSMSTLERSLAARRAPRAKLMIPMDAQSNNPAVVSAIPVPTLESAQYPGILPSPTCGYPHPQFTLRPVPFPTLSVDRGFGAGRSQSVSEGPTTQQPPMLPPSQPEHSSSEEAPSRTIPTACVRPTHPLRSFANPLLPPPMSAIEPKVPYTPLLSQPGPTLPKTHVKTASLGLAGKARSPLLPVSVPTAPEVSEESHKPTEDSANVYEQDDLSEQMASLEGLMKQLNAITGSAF

- binding result [1]: no binding
- binding result [2]: no binding
- binding result [3]: no binding
- binding result [4]: no binding
B1: ATL_0006178 (antibody, IgG1, V domains shown)
VH: QVQLQESGPGLVKPSETLSLTCTVSGGSISSYFWSWIRQPPGKGLEWIGYIHYSGTTNQNPSLKSRVTISVDKSKNQFSLKLSSVTAADTAVYYCARGRGMATLPFDYWGQGTLVTVSS
VL: not shown
notes: Combination variant of ATL_5262 (T82K, Q67 kept, N58Y); also called ATL_6178; ATL6178
